Laboratory results: patent publication WO2011080050A2 (dated 2011)
Changes are numbered by the printed parent chain.

T1: natural human CCL21 (secreted and isolated from transfected HEK-293T cells) (human, UniProt O00585 24-134)
T1 sequence: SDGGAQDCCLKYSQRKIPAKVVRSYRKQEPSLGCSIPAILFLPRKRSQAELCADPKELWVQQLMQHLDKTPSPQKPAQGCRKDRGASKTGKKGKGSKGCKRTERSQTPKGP

T2: human CCL21 (human, UniProt O00585 24-134)
T2 sequence: T1 sequence

T3: cynomolgus monkey CCL21 (cynomolgus monkey, UniProt Q8HYP5 24-131 (rhesus entry))
T3 sequence: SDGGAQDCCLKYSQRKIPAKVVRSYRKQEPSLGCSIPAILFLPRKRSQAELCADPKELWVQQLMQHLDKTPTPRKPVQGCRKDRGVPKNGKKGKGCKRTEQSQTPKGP

B1: MOR08378_g5-51_g2a2 (antibody, human IgG1, lambda, V domains shown)
VH: EVQLVQSGAEVKKPGESLKISCKGSGYSFNNYWISWVRQMPGKGLEWMGIIDPTNSQTTYSPSFQGQVTISADKSISTAYLQWSSLKASDTAMYYCARDGYPIFDYWGQGTLVTVSS
VL: QSALTQPASVSGSPGQSITISCTGTSSDLGGYNYVSWYQQHPGKAPKLMIYDVNYRPSGVSNRFSGSKSGNTASLTISGLQAEDEADYYCSSYTYYSNSGVFGGGTKLTVLG
B2: MOR06935_g3-23_g3j (antibody, V domains shown)
VH: EVQLLESGGGLVQPGGSLRLSCAASGFTFNSYSMSWVRQAPGKGLEWVSAISMEGYSKSYADSVKGRFTISRDNSKNTLYLQMNSLRAEDTAVYYCARGYGYYFDVWGQGTLVTVSS
VL: SYELTQPLSVSVALGQTARITCGGDSIGSQYASWYQQKPGQAPVLVIYDDNERPSGIPERFSGSNSGNTATLTISRAQAGDEADYYCGSWDSNPTHVFGGGTKLTVLG
notes: also called QBP359; FW repaired germlined MOR06935
B3: MOR08389_g3-23_g3j (antibody, human IgG1, lambda, V domains shown)
VH: B2 VH
VL: B2 VL with G88S, S92M, N93D, P94A, T95V, H96N
B4: MOR08382_g3-23_gL6 (antibody, human IgG1, kappa, V domains shown)
VH: EVQLLESGGGLVQPGGSLRLSCAASGFTFSSYWLNWVRQAPGKGLEWVSYISNQGDDTSYADSVKGRFTISRDNSKNTLYLQMNSLRAEDTAVYYCARDYQYIGDSFDIWGQGTLVTVSS
VL: EIVLTQSPATLSLSPGERATLSCRASQYVSYVSLAWYQQKPGQAPRLLIYDASNRATGIPARFSGSGSGTDFTLTISSLEPEDFAVYYCQQYDDLSYTFGQGTKVEIKR

Tests used:
[1] = target: T1, natural human CCL21 (secreted and …); assay: cell-based or functional assay
human CCL21 [2] = target: T2, human CCL21; assay: cell-based or functional assay
cynomolgus monkey CCL21 [3] = target: T3, cynomolgus monkey CCL21; assay: cell-based or functional assay
[4] = target: CCL21 of the four chemotaxis assays (recombinant human, recombinant cynomolgus monkey, natural human); assay: cell-based or functional assay
human CCL21 [5] = target: T2, human CCL21; assay: SPR (Biacore T100), antibody captured on protein A, CCL21 as analyte, 1:1 model, three experiments
cynomolgus monkey CCL21 [6] = target: T3, cynomolgus monkey CCL21; assay: SPR (Biacore T100), antibody captured on protein A, CCL21 as analyte, 1:1 model, two experiments

% inhibition of migration, natural hCCL21, H9 cells, 1:1 molar ratio (4th cell) [1] | % inhibition of migration, natural hCCL21, H9 cells, IgG at 2uM (4th cell) [1] | IC50, inhibition of natural hCCL21-mediated migration of H9 cells [1] | % inhibition of migration, recombinant hCCL21, H9 cells, 1:1 molar ratio (1st cell) (human CCL21 [2]) | % inhibition of migration, recombinant hCCL21, H9 cells, IgG at 2uM (1st cell) (human CCL21 [2]) | % inhibition of migration, recombinant hCCL21, primary human T cells, 1:1 molar ratio (2nd cell) (human CCL21 [2]) | % inhibition of migration, recombinant hCCL21, primary human T cells, IgG at 2uM (2nd cell) (human CCL21 [2]) | IC50, inhibition of recombinant hCCL21-mediated migration of H9 cells (human CCL21 [2]) | % inhibition of migration, recombinant cCCL21, H9 cells, 1:1 molar ratio (3rd cell) (cynomolgus monkey CCL21 [3]) | % inhibition of migration, recombinant cCCL21, H9 cells, IgG at 2uM (3rd cell) (cynomolgus monkey CCL21 [3]) | % inhibition of CCL21 mediated chemotaxis at 1:1 molar ratio, large scale batch, four assays [4] | IC50, inhibition of CCL21 mediated chemotaxis, large scale batch, four assays [4] | IC50, inhibition of CCL21-mediated calcium mobilization, human CCL21 on CHO-K1 cells with cynomolgus monkey CCR7 (human CCL21 [2]) | IC50, inhibition of CCL21-mediated calcium mobilization, human CCL21 on CHO-K1 cells with human CCR7 (human CCL21 [2]) | IC50, inhibition of CCL21-mediated calcium mobilization, cynomolgus monkey CCL21 on CHO-K1 cells with cynomolgus monkey CCR7 (cynomolgus monkey CCL21 [3]) | IC50, inhibition of CCL21-mediated calcium mobilization, cynomolgus monkey CCL21 on CHO-K1 cells with human CCR7 (cynomolgus monkey CCL21 [3]) | Kd (human CCL21 [5]) | kon (human CCL21 [5]) | Kd (cynomolgus monkey CCL21 [6]) | kon (cynomolgus monkey CCL21 [6]) | Binder
64% | 100% | 69 nM | 87% | 100% | 100% | 100% | 49.7 nM | 100% | 100% |  |  |  |  |  |  |  |  |  |  | B1
77% | 100% |  | 61% | 100% | 86% | 100% |  | 96% | 100% | 81 to 100% | 11 to 45 nM | 252 nM | 341 nM | 62 nM | 211 nM | 0.03 nM | 6.8e+07 M⁻¹ s⁻¹ | 0.026 nM | 9.1e+07 M⁻¹ s⁻¹ | B2
82% | 100% | 34 nM | 94% | 94% | 100% | 100% | 54.1 nM | 100% | 100% |  |  |  |  |  |  |  |  |  |  | B3
70% | 100% | 66 nM | 97% | 97% | 100% | 100% | 23.7 nM | 100% | 100% |  |  |  |  |  |  |  |  |  |  | B4
